T1: GPBP (Homo sapiens, UniProt Q9Y5P4)
T1 construct: made in house; host or cells: Pichia pastoris GS115
T1 sequence (Q9Y5P4 1-624): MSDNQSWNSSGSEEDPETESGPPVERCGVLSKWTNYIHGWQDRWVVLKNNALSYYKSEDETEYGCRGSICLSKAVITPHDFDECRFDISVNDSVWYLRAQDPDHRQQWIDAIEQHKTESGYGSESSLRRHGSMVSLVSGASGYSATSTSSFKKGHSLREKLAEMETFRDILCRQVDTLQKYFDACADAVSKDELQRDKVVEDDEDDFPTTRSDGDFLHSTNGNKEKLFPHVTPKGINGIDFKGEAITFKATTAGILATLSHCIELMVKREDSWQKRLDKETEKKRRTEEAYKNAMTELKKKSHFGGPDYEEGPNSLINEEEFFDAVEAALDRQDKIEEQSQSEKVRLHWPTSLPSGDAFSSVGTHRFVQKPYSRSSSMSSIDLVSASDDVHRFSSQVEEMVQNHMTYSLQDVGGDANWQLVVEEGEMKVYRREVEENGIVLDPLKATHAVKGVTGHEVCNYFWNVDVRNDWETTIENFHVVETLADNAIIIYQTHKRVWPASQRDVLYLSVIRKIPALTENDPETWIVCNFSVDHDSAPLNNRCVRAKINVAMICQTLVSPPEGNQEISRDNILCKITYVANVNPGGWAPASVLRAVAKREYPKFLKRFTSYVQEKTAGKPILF

T2: GPpep1
T2 chain: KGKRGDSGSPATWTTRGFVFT

T3: native bovine α3(IV)NC1 domain (bovine GP antigen), Q28084
T3 chain: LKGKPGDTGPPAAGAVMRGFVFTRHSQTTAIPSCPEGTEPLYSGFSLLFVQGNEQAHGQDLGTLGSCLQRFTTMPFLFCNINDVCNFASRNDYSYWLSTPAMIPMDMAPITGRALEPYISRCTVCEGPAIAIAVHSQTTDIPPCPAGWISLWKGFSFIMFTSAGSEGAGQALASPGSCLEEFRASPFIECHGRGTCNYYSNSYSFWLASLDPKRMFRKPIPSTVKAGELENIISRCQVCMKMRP

T4: prokaryotic human recombinant α3(IV)NC1
T4 chain: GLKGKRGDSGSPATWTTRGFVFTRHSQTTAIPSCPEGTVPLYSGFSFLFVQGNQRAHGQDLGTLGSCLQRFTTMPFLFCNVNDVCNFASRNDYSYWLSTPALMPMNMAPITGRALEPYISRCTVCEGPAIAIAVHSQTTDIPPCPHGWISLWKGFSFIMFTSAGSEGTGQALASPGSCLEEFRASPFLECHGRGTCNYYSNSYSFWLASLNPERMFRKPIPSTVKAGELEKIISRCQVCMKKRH


Columns and labels:
GPBP = biological target: T1, GPBP; assay: in vitro GPBP autophosphorylation in the presence of GPΔIII-derived peptide; type: biochemical; conditions: about 200 ng rGPBP, 150 μM ATP, 5 nmol peptide
Protocol: FIG. 20. Regulation of the GPBP by the C terminal region of GPΔIII. About 200 ng of RGPBP were in vitro phosphorylated with 150 μM ATP in the absence (lane 1) or in the presence of 5 nmol of GPΔIII-derived peptide synthesized either using Boc-(lane 2) or Fmoc-(lane 3) chemistry. The reaction mixtures were subjected to SDS-PAGE, transferred to PVDF and autoradiographed to assess autophosphorylation, and subsequently blotted with anti-FLAG monoclonal antibodies (Sigma) to determine the amount of recombinant material present (Western).
In vitro phosphorylation assays-About 200 ng of rGPBP were incubated overnight at 30° C. in 25 mM P-glycerolphosphate (pH 7.0), 0.5 mM EDTA, 0.5 mM EGTA, 8 mM MgCl2, 5 mM MnCl2, 1 mM DTT and 0.132 μM γ-^32P-ATP, in the presence or absence of 0.5-1 μg of protein substrates or 10 nmoles of synthetic peptides, in a total volume of 50 μl.
(§1) Phosphorylation studies. Phosphorylation studies were essentially done as described above (see also 3 and 11). In some experiments, the substrates were in-blot renatured and then, phosphorylated for 30 min at room temperature by overlaying 100 μl of phosphorylation buffer containing 0.5 μg of RGPBP. Digestion with V8 endopeptidase and immunoprecipitation were performed as described in (3).

PKA [1] = biological target: T5, PKA (Bos taurus, UniProt P00517); assay: PKA phosphorylation of native GP antigen (α3(IV)NC1 monomer or hexamer) in the presence of C-terminal peptides; type: biochemical; conditions: for induction of GP antigen phosphorylation by PKA (22 kDa conformer of α3(IV)NC1): 0.1 μM ATP, 10 nmol peptide
Protocol: FIG. 16. Phosphorylation of GP alternative splicing products by PKA. In left panel, equimolecular amounts of rGP (lanes 1), rGPΔV (lanes 2), rGPΔIII (lanes 3) or rGPΔIII/IV/V (lanes 4), equivalent to 500 ng of the GP were phosphorylated at the indicated ATP concentrations. One-fifth of the total phosphorylation reaction mixture was separated by gel electrophoresis and transferred to PVDF, autoradiographed (shown) and the proteins blotted with M3/1, a specific monoclonal antibody recognizing all four species (shown) or using antibodies specific for each individual C-terminal region (not shown). […] Right panel: purified α3(IV)NC1 domain or hexamer was phosphorylated with PKA and 0.1 μM ATP in the absence (lanes 1) or in the presence of 10 nmol of peptides representing the C-terminal region of either GPΔIII (lanes 2) or GPΔIII/IV/V (lanes 3). Where indicated the phosphorylation mixtures of purified α3(IV)NC1 domain were V8 digested and immunoprecipitated with antibodies specific for the N terminus of the human α3(IV)NC1 domain (3). Bars and numbers indicate the position and sizes (kDa) of the molecular weight markers.
as §1
Regulation of the phosphorylation of the human GP antigen by alternative splicing. We produced bacterial recombinant proteins representing the primary antigen (GP) or the individual alternative products GPΔV (SEQ ID NO:46), GPΔIII (SEQ ID NO:48) and GPΔIII/IV/V (SEQ ID NO:50), and we tested their ability to be phosphorylated by PKA (FIG. 16, left panel). […] Accordingly, the differences observed in phosphorylation for the full polypeptides also existed among the individual N-terminal regions, as determined after specific V8 digestion and immunoprecipitation (not shown). […]

PKA [2] = biological target: T5, PKA; assay: in vitro phosphorylation of the synthetic peptides by PKA; type: biochemical; conditions: not shown
GPpep1 = biological target: T2, GPpep1
[3] = biological target: T3, native bovine α3(IV)NC1 domain (bovine …)
[4] = biological target: T4, prokaryotic human recombinant α3(IV)NC1
[5] = biological target: the molecule itself; assay: gel filtration HPLC and analytical centrifugation
Protocol: FIG. 11. rGPBP and rGPBPΔ26 form very active high molecular weight aggregates. About 300 μg of rGPBP (A) or rGPBPΔ26 (B) were subjected to gel filtration HPLC as described under Material and Methods. Vertical arrowheads and numbers respectively indicate the elution profile and molecular mass (kDa) of the molecular weight standards used. Larger aggregates eluted in the void volume (I), and the bulk of the material present in the samples eluted in the fractionation range of the column as a second peak between the 669 and 158 kDa markers (II). Fifteen microliters of the indicated minute fractions were subjected to SDS-PAGE and Coomasie blue staining. Five microliters of the same fractions were in vitro phosphorylated as described in Materials and Methods, and the reaction stopped by boiling in SDS sample buffer. The fractions were loaded onto SDS-PAGE, transferred to PVDF and autoradiographed for 1 or 2 hours using Kodak X-Omat films and blotted using anti-FLAG monoclonal antibodies (Sigma).
Northern hybridization studies Pre-made human multiple-tissue and tumor cell-line Northern Blots (CLONTECH) were probed with a cDNA containing the 78-bp exon present only in GPBP or with a cDNA representing both isoforms. […] The material was eluted from the column at 0.5 ml/min, monitored at 220 nm and minute fractions collected. […]

| Molecule | effect on GPBP autophosphorylation (GPBP) | in vitro substrate of PKA (PKA [2]) | induction of GP antigen phosphorylation by PKA (22 kDa conformer of α3(IV)NC1) (PKA [1]) | binding result [5] | further results |
| --- | --- | --- | --- | --- | --- |
| QRAHGQDLDALFVKVLRSP [Boc-based peptide] | positively influenced GPBP autophosphorylation | in vitro substrates of PKA | – | – | retention of ability to induce PKA on storage (PKA [1]; long storage at low temperatures): loses its ability to induce PKA |
| QRAHGQDLDALFVKVLRSP [Fmoc-based peptide] | inhibited GPBP autophosphorylation | not | – | – | – |
| QRAHGQDLESLFHQL [SEQ ID NO:44, synthetic peptide representing the C-terminal region of GPΔIII/IV/V] | – | – | induced the phosphorylation of a single polypeptide | – | – |
| QRAHGQDLDALFVKVLRSP [SEQ ID NO: 43, synthetic peptide representing the C-terminal region of GPΔIII] | – | – | induced the phosphorylation of a single polypeptide | – | – |
| FLAG-tagged recombinant GPBPΔ26 (rGPBPΔ26) (enzyme, From plasmid pHIL-FLAG-n4′Δ26, expressed in Pichia pastoris) DYKDDDDKMSDNQSWNSSGSEEDPETESGPPVERCGVLSKWTNYIHGWQDRWVVLKNNALSYYKSEDETEYGCRGSICLSKAVITPHDFDECRFDISVNDSVWYLRAQDPDHRQQWIDAIEQHKTESGYGSESSLRRHGSMVSLVSGASGYSATSTSSFKKGHSLREKLAEMETFRDILCRQVDTLQKYFDACADAVSKDELQRDKVVEDDEDDFPTTRSDGDFLHSTNGNKEKLFPHVTPKGINGIDFKGEAITFKATTAGILATLSHCIELMVKREDSWQKRLDKETEKKRRTEEAYKNAMTELKKKSHFGGPDYEEGPNSLINEEEFFDAVEAALDRQDKIEEQSQSEKVRLHWPTSLPSGDAFSSVGTHRFVQKVEEMVQNHMTYSLQDVGGDANWQLVVEEGEMKVYRREVEENGIVLDPLKATHAVKGVTGHEVCNYFWNVDVRNDWETTIENFHVVETLADNAIIIYQTHKRVWPASQRDVLYLSVIRKIPALTENDPETWIVCNFSVDHDSAPLNNRCVRAKINVAMICQTLVSPPEGNQEISRDNILCKITYVANVNPGGWAPASVLRAVAKREYPKFLKRFTSYVQEKTAGKPILF | – | – | – | binds | trans-phosphorylation activity with 5 nmol GPpep1 (GPpep1): the reduced in-solution auto- and trans-phosphorylation activities displayed by rGPBPΔ26; conformers and oligomers after DTT consumption, Western blot [3]: Essentially the same results were obtained when blotting the samples that contained GPBPΔ26; disruption of disulfide-based aggregates, Western blot [4]: GPBP and, to a lesser extent GPBPΔ26 disrupted disulfide-based high molecular weight aggregates characteristic of recombinant material representing human α3(IV)NC1 produced in bacteria |
| FLAG-tagged recombinant GPBP (rGPBP) (enzyme, phosphoserine, phosphothreonine and phosphotyrosine present, sites not given, Made in Pichia pastoris or 293 cells; also called FLAG-n4′) DYKDDDDKMSDNQSWNSSGSEEDPETESGPPVERCGVLSKWTNYIHGWQDRWVVLKNNALSYYKSEDETEYGCRGSICLSKAVITPHDFDECRFDISVNDSVWYLRAQDPDHRQQWIDAIEQHKTESGYGSESSLRRHGSMVSLVSGASGYSATSTSSFKKGHSLREKLAEMETFRDILCRQVDTLQKYFDACADAVSKDELQRDKVVEDDEDDFPTTRSDGDFLHSTNGNKEKLFPHVTPKGINGIDFKGEAITFKATTAGILATLSHCIELMVKREDSWQKRLDKETEKKRRTEEAYKNAMTELKKKSHFGGPDYEEGPNSLINEEEFFDAVEAALDRQDKIEEQSQSEKVRLHWPTSLPSGDAFSSVGTHRFVQKPYSRSSSMSSIDLVSASDDVHRFSSQVEEMVQNHMTYSLQDVGGDANWQLVVEEGEMKVYRREVEENGIVLDPLKATHAVKGVTGHEVCNYFWNVDVRNDWETTIENFHVVETLADNAIIIYQTHKRVWPASQRDVLYLSVIRKIPALTENDPETWIVCNFSVDHDSAPLNNRCVRAKINVAMICQTLVSPPEGNQEISRDNILCKITYVANVNPGGWAPASVLRAVAKREYPKFLKRFTSYVQEKTAGKPILF | – | – | – | binds | – |
